Measurements: US20150329642A1 (Genmab, published 2015)

B1: UniBody molecule of antibody 008 (other)
VH: EVQLVQSGAEVKKPGESLKISCKGSGYSFTSYWIGWVRQMPGKGLEWMGIIYPGDSETRYSPSFQGQVTISADKSISTAYLQWSSLKASDTAMYYCARQEITGEFDYWGQGTLVTVSS
VL: AIQLTQSPSSLSASVGDRVTITCRASQGISSALAWYQQKPGKAPKLLIYDASSLESGVPSRFSGSGSGTDFTLTISSLQPEDFATYYCQQFNSYPRTFGQGTKVEIK
B2: UniBody molecule of antibody 035 (other)
VH: EVQLVQSGAEVKKPGESLKISCKGSGYSFTSYWIGWVRQMPGKGLEWMGIIYPGDSDTRYSPSFQGQVTISADKSISTAYLQWNSLKASDTAMYYCARQEITGEFDYWGQGTLVTVSS
VL: AIQLTQSPSSLSASVGDRVTITCRASQGISSALAWYQQKPGKAPKLLIYDASSLESGVPSRFSGSGSGTDFTLTISSLQPEDFATYYCQQFNSYPMYTFGQGTKLEIK
B3: Uni-1016-045-TE (other)
VH: EVQLLESGGGLVQPGGSLRLSCAASGFTFSSYAMSWVRQAPGKGLEWVSVISGSGGITYYADSVKGRFTISRDNSKNTLYLQMNSLRAEDTAVYYCARDRGWGSDYWGQGTLVTVSS
VL: EIVLTQSPATLSLSPGERATLSCRASQSVSSYLAWYQQKPGQAPRLLIYDASNRATGIPARFSGSGSGTDFTLTISSLEPEDFAVYYCQQRSNWPFTFGPGTKVDIK
notes: also called UniBody molecule of antibody 045
B4: UniBody molecule of antibody 098 (other)
VH: QVQLVQSGAEVKKPGASVKVSCKASGYTFTNFGISWVRQAPGQGLEWMGWISAFNGHTDYSQKVQGRVTMTTDTSTSTAYMELRSLRSDDTAVFYCARSHYYGSGSPFDYWGQGTLVTVSS
VL: DIQMTQSPSSLSASVGDRVTITCRASQGISNWLAWYQQKPEKAPKSLIYAASSLQSGVPSRFSGSGSGTDFTLTISSLQPEDFATYYCHQYKSYPWTFGQGTKVEIK
B5: Uni-1016-005 (other)
VH: QVQLVQSGAEVKKPGSSVKVSCKASGGTFSSYGFGWVRQAPGQGLEWMGRISPILGIANYAQMFQGRVTITADKSTSTAYMELSSLRSEDTAVYYCARDVGYDWPDTFDIWGQGTMVIVSS
VL: DIQMTQSPSSLSASVGDRVTITCRASQGISSWLAWYQQKPEKAPKSLIYAASSLQSGVPSRFSGGGSGTDFTLTISSLQPEDFATYYCQQYNSFPPTFGQGTKVEIK
notes: also called UniBody molecule of antibody 005
B6: Uni-1016-069-TE (other)
VH: QVQLVQSGAEVKKPGASVKVSCETSGYTFTSYGISWVRQAPGHGLEWMGWISAYNGYTNYAQKLQGRVTMTTDTSTSTAYMELRSLRSDDTAVYYCARDLRGTNYFDYWGQGTLVTVSS
VL: DIQMTQSPSSVSASVGDRVTITCRASQGISNWLAWFQHKPGKAPKLLIYAASSLLSGVPSRFSGSGSGTDFTLTISSLQPEDFATYYCQQANSFPITFGQGTRLEIK
notes: also called UniBody molecule of antibody 069
B7: IgG1-1016-069-C220S (antibody, V domains shown)
VH: QVQLVQSGAEVKKPGASVKVSCETSGYTFTSYGISWVRQAPGHGLEWMGWISAYNGYTNYAQKLQGRVTMTTDTSTSTAYMELRSLRSDDTAVYYCARDLRGTNYFDYWGQGTLVTVSS
VL: DIQMTQSPSSVSASVGDRVTITCRASQGISNWLAWFQHKPGKAPKLLIYAASSLLSGVPSRFSGSGSGTDFTLTISSLQPEDFATYYCQQANSFPITFGQGTRLEIK
notes: human kappa; also called IgG1 C220S mutant of 069
B8: IgG2-1016-069 (antibody, V domains shown)
VH: QVQLVQSGAEVKKPGASVKVSCETSGYTFTSYGISWVRQAPGHGLEWMGWISAYNGYTNYAQKLQGRVTMTTDTSTSTAYMELRSLRSDDTAVYYCARDLRGTNYFDYWGQGTLVTVSS
VL: DIQMTQSPSSVSASVGDRVTITCRASQGISNWLAWFQHKPGKAPKLLIYAASSLLSGVPSRFSGSGSGTDFTLTISSLQPEDFATYYCQQANSFPITFGQGTRLEIK
notes: IgG2 format of clone 069; also called IgG2 backbone variant of 069
B9: IgG1-1016-069 TH7Δ6-9 (antibody, V domains shown)
VH: QVQLVQSGAEVKKPGASVKVSCETSGYTFTSYGISWVRQAPGHGLEWMGWISAYNGYTNYAQKLQGRVTMTTDTSTSTAYMELRSLRSDDTAVYYCARDLRGTNYFDYWGQGTLVTVSS
VL: DIQMTQSPSSVSASVGDRVTITCRASQGISNWLAWFQHKPGKAPKLLIYAASSLLSGVPSRFSGSGSGTDFTLTISSLQPEDFATYYCQQANSFPITFGQGTRLEIK
notes: human kappa; also called IgG1 TH7Δ6-9 mutant of 069
B10: IgG1-1016-069-Hinge IgG2 (antibody, V domains shown)
VH: QVQLVQSGAEVKKPGASVKVSCETSGYTFTSYGISWVRQAPGHGLEWMGWISAYNGYTNYAQKLQGRVTMTTDTSTSTAYMELRSLRSDDTAVYYCARDLRGTNYFDYWGQGTLVTVSS
VL: DIQMTQSPSSVSASVGDRVTITCRASQGISNWLAWFQHKPGKAPKLLIYAASSLLSGVPSRFSGSGSGTDFTLTISSLQPEDFATYYCQQANSFPITFGQGTRLEIK
notes: human kappa; also called IgG1 Hinge-IgG2 variant of 069
B11: Uni-IgG1-1016-069 (antibody, V domains shown)
VH: QVQLVQSGAEVKKPGASVKVSCETSGYTFTSYGISWVRQAPGHGLEWMGWISAYNGYTNYAQKLQGRVTMTTDTSTSTAYMELRSLRSDDTAVYYCARDLRGTNYFDYWGQGTLVTVSS
VL: DIQMTQSPSSVSASVGDRVTITCRASQGISNWLAWFQHKPGKAPKLLIYAASSLLSGVPSRFSGSGSGTDFTLTISSLQPEDFATYYCQQANSFPITFGQGTRLEIK
notes: human kappa; also called Hinge deleted IgG1 (Uni-IgG1) of 069; UniBody-IgG1
B12: IgG1-1016-069-Hinge IgG3 (antibody, V domains shown)
VH: QVQLVQSGAEVKKPGASVKVSCETSGYTFTSYGISWVRQAPGHGLEWMGWISAYNGYTNYAQKLQGRVTMTTDTSTSTAYMELRSLRSDDTAVYYCARDLRGTNYFDYWGQGTLVTVSS
VL: DIQMTQSPSSVSASVGDRVTITCRASQGISNWLAWFQHKPGKAPKLLIYAASSLLSGVPSRFSGSGSGTDFTLTISSLQPEDFATYYCQQANSFPITFGQGTRLEIK
notes: also called IgG1 Hinge-IgG3 variant of 069
B13: IgG1-1016-069-ΔC220 (antibody, V domains shown)
VH: QVQLVQSGAEVKKPGASVKVSCETSGYTFTSYGISWVRQAPGHGLEWMGWISAYNGYTNYAQKLQGRVTMTTDTSTSTAYMELRSLRSDDTAVYYCARDLRGTNYFDYWGQGTLVTVSS
VL: DIQMTQSPSSVSASVGDRVTITCRASQGISNWLAWFQHKPGKAPKLLIYAASSLLSGVPSRFSGSGSGTDFTLTISSLQPEDFATYYCQQANSFPITFGQGTRLEIK
notes: human kappa; also called IgG1 ΔC220 mutant of 069
B14: UniBody molecule of antibody 181 (other)
VH: QVQLVQSGAEVKKPGASVKVSCKASGYTFTSYGISWVRQAPGQGLEWMGWISTYNGYTNYAQKLQGRVTMTTDTSTSTAYMELRSLRSDDTAVYYCARDLRGTAYFDYWGQGTLVTVSS
VL: DIQMTQSPSSVSASVGDRVTITCRASQGISNWLAWYQHKPGKAPKLLIYAASSLLSGVPSRFSGSGSGTDFTLTISSLQPEDFATYYCQQANSFPITFGQGTRLEIK
B15: UniBody molecule of antibody 024 (other)
VH: EVQLLESGGGLVQPGGSLRLSCVASGFTFSSYAMSWVRQAPGKGLEWVSAISGSSGGSTYYVDSVKGRFTISRANSKNTLYLQMNSLRAEDTAVYYCAKDLDRGWMGYFGYWGQGTLVTVSS
VL: DIQMTQSPSSVSASVGDRVTITCRASQGISSWLAWYQHKPGKAPKLLIYAASSLQSGVPSRFSGSGSGTDFTLTISSLQPEDFATYYCQQANSFPTFGQGTRLEIK

What was measured:
[1] = molecular target: T1, human c-Met, membrane-bound on cells (human, UniProt P08581 25-1390); test: flow cytometry on A431 cells
T1 construct: whole, on cells; A431 cells carry on average 30,000 copies of c-Met per cell (Qifi); also called c-Met expressed on A431 cells; c-Met on A549 cells
T1 sequence (P08581 25-1390): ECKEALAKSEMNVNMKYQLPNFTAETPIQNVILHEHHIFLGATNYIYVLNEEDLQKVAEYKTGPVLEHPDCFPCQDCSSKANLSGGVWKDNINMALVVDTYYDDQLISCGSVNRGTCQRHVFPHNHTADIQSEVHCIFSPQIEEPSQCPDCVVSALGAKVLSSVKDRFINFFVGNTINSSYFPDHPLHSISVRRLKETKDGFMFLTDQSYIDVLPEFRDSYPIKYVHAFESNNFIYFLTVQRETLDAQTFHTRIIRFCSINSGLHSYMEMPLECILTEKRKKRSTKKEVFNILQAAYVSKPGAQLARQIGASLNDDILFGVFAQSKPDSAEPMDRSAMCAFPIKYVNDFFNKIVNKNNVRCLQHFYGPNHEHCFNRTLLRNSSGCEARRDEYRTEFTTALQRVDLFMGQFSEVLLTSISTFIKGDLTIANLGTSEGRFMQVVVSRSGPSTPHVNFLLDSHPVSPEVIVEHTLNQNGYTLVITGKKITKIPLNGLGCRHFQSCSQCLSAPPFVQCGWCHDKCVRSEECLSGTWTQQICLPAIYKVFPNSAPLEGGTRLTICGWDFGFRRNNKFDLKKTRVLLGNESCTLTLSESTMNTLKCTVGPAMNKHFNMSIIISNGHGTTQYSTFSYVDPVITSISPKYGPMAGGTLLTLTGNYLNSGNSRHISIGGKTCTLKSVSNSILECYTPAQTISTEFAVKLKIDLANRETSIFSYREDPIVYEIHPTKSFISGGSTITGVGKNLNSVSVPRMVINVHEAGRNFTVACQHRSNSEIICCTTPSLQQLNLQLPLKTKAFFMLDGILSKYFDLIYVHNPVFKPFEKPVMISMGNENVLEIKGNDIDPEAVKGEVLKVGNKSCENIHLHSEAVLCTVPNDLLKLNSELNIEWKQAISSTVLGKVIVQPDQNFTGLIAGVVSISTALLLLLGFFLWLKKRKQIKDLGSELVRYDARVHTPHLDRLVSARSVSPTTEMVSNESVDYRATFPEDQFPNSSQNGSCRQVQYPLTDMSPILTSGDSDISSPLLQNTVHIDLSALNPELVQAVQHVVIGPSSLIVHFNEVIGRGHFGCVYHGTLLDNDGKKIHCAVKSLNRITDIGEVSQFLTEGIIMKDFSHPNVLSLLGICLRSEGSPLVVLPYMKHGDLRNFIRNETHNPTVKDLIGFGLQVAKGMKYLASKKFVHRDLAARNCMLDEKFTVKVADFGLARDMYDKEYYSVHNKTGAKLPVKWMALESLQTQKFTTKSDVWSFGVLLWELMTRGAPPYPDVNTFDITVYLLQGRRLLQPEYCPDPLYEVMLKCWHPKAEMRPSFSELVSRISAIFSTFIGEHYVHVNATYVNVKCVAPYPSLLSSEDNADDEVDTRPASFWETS
Method: (§1) The binding of anti-c-Met antibodies and monovalent forms thereof (also termed “UniBody molecules” herein, see Example 5) to A431 cells expressing membrane-bound c-Met (purchased at ATCC, CRL-1555) was tested using flow cytometry (FACS Canto II, BD Biosciences). […] Binding of anti-c-Met antibodies and UniBody molecules was detected using a Phycoerythrin-conjugated goat-anti-human IgG antibody (Jackson). IgG1-5D5 was used as positive control antibody, and HuMab-KLH was used as isotype control antibody. EC₅₀ values were determined by means of non-linear regression (sigmoidal dose-response with variable slope) using GraphPad Prism V4.03 software (GraphPad Software, San Diego, Calif., USA).
(§2) Also maximum binding levels were unchanged between IgG1's and UniBody molecules. For antibodies 005, 006, 008, 035, 045 and 058, on the other hand, a more than 2-fold […] as well as a decrease in maximum binding level was observed when comparing IgG1 with their UniBody counterpart. This was most likely due to the […] (Kd) of these antibodies (see Example 14).

[2] = molecular target: T1, human c-Met, membrane-bound on cells; test: flow cytometry on A431 cells (PE goat anti-human IgG); second panel
Method: as §1, §2

[3] = molecular target: T1, human c-Met, membrane-bound on cells; test: flow cytometry on A431 cells (PE goat anti-human IgG); third panel
Method: as §1, §2

[4] = molecular target: T1, human c-Met, membrane-bound on cells; test: flow cytometry on A431 cells (PE goat anti-human IgG); bottom panel
Method: as §1, §2

[5] = molecular target: T2, rhHGF R/Fc Chimera (R&D Systems; Cat.358MT/CF) (human, UniProt P08581 25-932); test: ELISA on coated rhHGF R/Fc Chimera
T2 construct: Bought reagent; Fc part of the bought chimera not given; not described
T2 sequence (P08581 25-932, change not shown): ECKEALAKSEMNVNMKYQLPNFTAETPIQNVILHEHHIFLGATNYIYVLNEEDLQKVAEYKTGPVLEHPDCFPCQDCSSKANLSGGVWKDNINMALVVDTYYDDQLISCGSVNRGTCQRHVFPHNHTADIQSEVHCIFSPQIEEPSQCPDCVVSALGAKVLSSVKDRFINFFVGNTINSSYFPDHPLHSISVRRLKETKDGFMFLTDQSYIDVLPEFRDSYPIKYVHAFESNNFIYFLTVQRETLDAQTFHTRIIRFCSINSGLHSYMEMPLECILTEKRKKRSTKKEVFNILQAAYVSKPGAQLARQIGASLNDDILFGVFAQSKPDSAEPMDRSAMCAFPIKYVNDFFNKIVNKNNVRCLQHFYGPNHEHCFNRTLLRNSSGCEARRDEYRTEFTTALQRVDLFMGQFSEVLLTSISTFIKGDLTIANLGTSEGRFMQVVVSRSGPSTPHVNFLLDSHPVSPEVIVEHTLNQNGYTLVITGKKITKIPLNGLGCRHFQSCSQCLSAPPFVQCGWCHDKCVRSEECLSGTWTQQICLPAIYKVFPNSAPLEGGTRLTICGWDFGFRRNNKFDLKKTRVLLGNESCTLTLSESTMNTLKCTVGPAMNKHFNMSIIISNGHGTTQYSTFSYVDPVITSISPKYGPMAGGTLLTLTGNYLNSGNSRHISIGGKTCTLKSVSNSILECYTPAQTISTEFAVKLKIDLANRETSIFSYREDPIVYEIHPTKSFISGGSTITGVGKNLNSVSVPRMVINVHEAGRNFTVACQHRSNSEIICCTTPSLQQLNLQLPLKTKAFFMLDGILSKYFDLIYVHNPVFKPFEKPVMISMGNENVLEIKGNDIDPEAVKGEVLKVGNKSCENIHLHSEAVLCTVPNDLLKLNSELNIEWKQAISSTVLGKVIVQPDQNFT
Method: c-Met binding properties of the mutants were tested in an ELISA. ELISA plate wells were coated overnight at 4° C. with rhHGF R/Fc Chimera (R&D Systems; Cat.358MT/CF) in PBS (1 μg/mL). Next, the wells were washed with PBST (PBS supplemented with 0.05% Tween-20 [Sigma-Aldrich, Zwijndrecht, The Netherlands]) and blocked for one hour at room temperature (RT) with PBSTC (PBST supplemented 2% [v/v] chicken serum [Gibco, Paisley, Scotland]). Subsequently, the wells were washed with PBST and incubated for one hour at RT with the anti-cMet antibodies and variants serially diluted in PBSTC (10 μg/mL in 4-fold dilutions). […] After washing, the reaction was visualized by a 15 min incubation with 2,2′-azino-bis(3-ethylbenzothiazoline-6-sulfonic acid) (ABTS: dilute one ABTS tablet in 50 mL ABTS buffer [Roche Diagnostics, Almere, The Netherlands]) at RT protected from light. The colorization was stopped by adding an equal volume of oxalic acid (Sigma-Aldrich, Zwijndrecht, The Netherlands). […] at 405 nm was measured on a microtiter plate reader (Biotek Instruments, Winooski, USA).

| Binder | fold change of EC50, UniBody molecule against IgG1 of the identical clone [1] [fold] | EC50 [5] [µg/mL] | other results |
| --- | --- | --- | --- |
| B1 | > 2 | – | EC50 [2]: 1.85 nM |
| B2 | > 2 | – | EC50 [3]: 9.32 nM |
| B3 | > 2 | – | EC50 [3]: 12.2 nM |
| B4 | < 2 | – | EC50 [4]: 1.16 nM |
| B5 | > 2 | – | EC50 [2]: 5.8 nM |
| B6 | < 2 | 0.0301 | EC50 [4]: 0.6 nM |
| B7 | – | 0.0156 | – |
| B8 | – | 0.0296 | – |
| B9 | – | 0.0188 | – |
| B10 | – | 0.023 | – |
| B11 | – | 0.0154 | – |
| B12 | – | 0.0142 | – |
| B13 | – | 0.0189 | – |
| B14 | < 2 | – | EC50 [4]: 0.847 nM |
| B15 | < 2 | – | EC50 [3]: 2.42 nM |
